Laboratory results published in patent publication US20210403583A1 (ELIXIRON IMMUNOTHERAPEUTICS HONG KONG, published 2021).

B1: chimeric anti-CSF1R/IL10 fusion protein 6D4/IL10 (antibody, human IgG1, kappa)
heavy: not shown
light: DIQMNQSPSSLSASLGDTITITCHASQNINVWLSWYQQKPGNIPKLLIYKASNLHTGVPSRFSGSGSGTGFTLTISSLQPEDIATYYCQQGQSYPYTFGGGTKLEIKRTVAAPSVFIFPPSDEQLKSGTASVVCLLNNFYPREAKVQWKVDNALQSGNSQESVTEQDSKDSTYSLSSTLTLSKADYEKHKVYACEVTHQGLSSPVTKSFNRGEC
notes: Antibody-cytokine fusion: human IL10 fused by a linker to the C-terminus of the heavy chain
B2: chimeric anti-CSF1R/IL10 fusion protein 6D4/(IL10)2 (antibody, human IgG1, kappa)
heavy: not shown
light: B1 light
notes: Antibody-cytokine fusion: two human IL10 in tandem fused by linkers to the C-terminus of the heavy chain

Legend:
[1] = molecular target: T1, recombinant human CSF1R-Fc fusion protein (human, UniProt P07333 20-512); experiment: ELISA, coated human CSF1R-Fc
T1 construct: probably the same protein; also called CSF1R-Fc (dimer); not shown: Fc part
Method: Materials and methods: Recombinant human CSF1R-Fc, or mouse CSF1R-Fc (Sino Biological) were immobilized on 96 well microtiter plate at a concentration of 1 μg/mL in Coating Solution (SeraCare) overnight at 4° C. The wells were washed with wash solution (0.05% Tween20 in imidazole-buffered saline) and blocked with 1% BSA. Serial dilutions of the anti-CSF1R/IL-10 fusion proteins were added to wells. After incubation at 3TC for 1 h, the wells were washed with wash solution. To detect chimeric Ab/IL10 fusions, peroxidase-conjugated goat anti-human kappa light chain antibody (Bethyl) was applied to each well at 3TC for 1 h incubation. To detect AB98 or AB98/1110 fusions, peroxidase-conjugated Goat anti-mouse IgG Fab antibody (Jackson immunoresearch) was applied to each well at 3TC for 1 h incubation. After washing, the wells were developed with TMB substrate for 5-10 min at RT and then stopped with 1 N HCl. Thereafter absorbance was measured at 450 nm and 650 nm.

[2] = molecular target: T1, recombinant human CSF1R-Fc fusion …; experiment: competition ELISA, coated human CSF1R-Fc, competitor biotinylated human CSF1-His 2.5 ug/mL
Method: Materials and methods: Recombinant human CSF1R-Fc or mouse CSF1R-Fc (Sino Biological) fusion protein was immobilized on 96 well microtiter plate at a concentration of 1 μg/mL in Coating Solution (SeraCare) overnight at 4° C. The wells were washed with wash solution and blocked with 1% BSA at RT. Serial dilutions of Ab/IL-10 fusion proteins were added to wells. Then 2.5 ug/mL biotinylated human CSF1-His (Biolegend) or mouse CSF1-His (Sino Biological) was added and incubated for 1 h at 37° C. After washing, Streptavidin-HRP (Jackson ImmunoResearch) was applied to wells at RT for 1 h incubation. After washing, the wells were developed with TMB substrate for 5-10 min at RT and the stopped with 1 N HCl. Thereafter absorbance was measured at 450 nm and 650 nm. The IC₅₀ values were calculated through GraphPad Prism7.

[3] = molecular target: T2, recombinant human IL-10Ra fusion protein (R&D Systems) (human, UniProt Q13651 22-235); experiment: ELISA, coated human IL-10Ra fusion protein
T2 sequence (looked up): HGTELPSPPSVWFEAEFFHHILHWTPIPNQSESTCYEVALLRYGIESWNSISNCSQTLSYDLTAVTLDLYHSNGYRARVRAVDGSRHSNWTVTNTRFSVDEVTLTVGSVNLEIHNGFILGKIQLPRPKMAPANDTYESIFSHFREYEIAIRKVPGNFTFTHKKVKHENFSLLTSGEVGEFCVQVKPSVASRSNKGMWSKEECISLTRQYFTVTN
Method: Materials and methods: Recombinant human IL-10Ra fusion protein (R&D Systems) were immobilized on 96 well microtiter plate at a concentration of 1 μg/ml in Coating Solution (SeraCare) overnight at 4° C. The wells were washed with wash solution (0.05% Tween20 in imidazole-buffered saline) and blocked with 1% BSA. Serial dilutions of Ab/IL-10 fusion proteins were added to wells. After incubation at 37° C. for lhr, the wells were washed with wash solution. Peroxidase-conjugated goat anti-human kappa light chain antibody (Bethyl) was applied to each well at 37° C. for 1 hr incubation. After washing, the wells were developed with TMB substrate for 5-10 min at RT and then stopped with 1 N HCl. Thereafter absorbance was measured at 450 nm and 650 nm. The EC50 value was calculated through GraphPad Prism7.

[4] = molecular target: T3, cynomolgus CSF1R expressed on 293F cells (cynomolgus monkey, UniProt P07333 20-972 (human entry)); experiment: flow cytometry titration on 293F cells overexpressing cynomolgus CSF1R, anti-human IgG-Alexa Fluor 647
T3 construct: also called cynoCSF1R
T3 chain: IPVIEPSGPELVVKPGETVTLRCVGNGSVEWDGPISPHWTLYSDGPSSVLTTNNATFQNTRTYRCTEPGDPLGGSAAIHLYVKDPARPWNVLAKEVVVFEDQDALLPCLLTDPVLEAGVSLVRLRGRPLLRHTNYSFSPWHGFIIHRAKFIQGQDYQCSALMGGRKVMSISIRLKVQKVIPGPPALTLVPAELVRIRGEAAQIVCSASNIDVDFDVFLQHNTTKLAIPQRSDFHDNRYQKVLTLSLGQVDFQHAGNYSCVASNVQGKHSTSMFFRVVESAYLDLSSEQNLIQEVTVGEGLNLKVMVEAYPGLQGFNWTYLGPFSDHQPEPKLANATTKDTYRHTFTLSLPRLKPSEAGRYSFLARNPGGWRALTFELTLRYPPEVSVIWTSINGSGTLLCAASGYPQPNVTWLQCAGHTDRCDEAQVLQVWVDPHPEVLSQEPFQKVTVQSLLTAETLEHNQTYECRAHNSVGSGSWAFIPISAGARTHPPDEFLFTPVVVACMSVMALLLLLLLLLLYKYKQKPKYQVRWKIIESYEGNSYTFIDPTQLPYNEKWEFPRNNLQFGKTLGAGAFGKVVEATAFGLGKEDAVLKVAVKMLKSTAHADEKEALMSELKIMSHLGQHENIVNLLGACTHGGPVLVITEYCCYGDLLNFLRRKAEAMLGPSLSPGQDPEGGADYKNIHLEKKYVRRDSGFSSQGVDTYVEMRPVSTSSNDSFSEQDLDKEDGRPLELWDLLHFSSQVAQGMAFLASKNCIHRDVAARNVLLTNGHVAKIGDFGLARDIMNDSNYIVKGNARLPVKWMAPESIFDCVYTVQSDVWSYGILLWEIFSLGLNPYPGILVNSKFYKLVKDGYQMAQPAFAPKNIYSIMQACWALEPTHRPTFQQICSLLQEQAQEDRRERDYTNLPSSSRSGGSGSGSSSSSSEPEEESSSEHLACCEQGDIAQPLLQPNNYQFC
From the text: Materials and methods: The gene segments encoding full-length human CSF1R or cynomolgus CSF1R were obtained using Thermo gene synthesis service and cloned in a mammalian expression vector pCDNA3.4. […] After washing with FACS buffer (2%FBS in PBS), the cells were stained with anti-human IgG-Alexa Fluor 647 and analyzed by Attune N×T Flow Cytometer (Thermo Scientific).

[5] = molecular target: human CSF1R expressed on cells (293F/huCSF1R stable cells; AML5 cells; human monocytes and macrophages) (human, UniProt P07333 20-972); experiment: cell-based or functional assay

T1 sequence (P07333 20-512 limits assumed): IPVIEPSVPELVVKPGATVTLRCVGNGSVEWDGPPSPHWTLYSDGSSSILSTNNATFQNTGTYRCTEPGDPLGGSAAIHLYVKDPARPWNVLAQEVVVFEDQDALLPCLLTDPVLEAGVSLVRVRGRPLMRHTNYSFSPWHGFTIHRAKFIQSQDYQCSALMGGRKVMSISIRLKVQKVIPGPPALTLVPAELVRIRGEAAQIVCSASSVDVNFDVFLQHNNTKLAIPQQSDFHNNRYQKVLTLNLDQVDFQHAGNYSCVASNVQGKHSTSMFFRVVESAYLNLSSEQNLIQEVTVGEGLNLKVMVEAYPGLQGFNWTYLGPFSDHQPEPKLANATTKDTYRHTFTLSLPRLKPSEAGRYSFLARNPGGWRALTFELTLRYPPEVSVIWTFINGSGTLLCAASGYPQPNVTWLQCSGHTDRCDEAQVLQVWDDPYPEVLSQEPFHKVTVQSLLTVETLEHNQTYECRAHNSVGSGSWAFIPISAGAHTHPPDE

| Binder | EC50 [1] | IC50 [2] | EC50 [3] | binding result [4] | IC50 (M), inhibition of AML5 cell proliferation (CSF1-dependent) [5] |
| --- | --- | --- | --- | --- | --- |
| B1 | 0.479 nM | 1.4 nM | 2.76 nM | binds | 4.92e-09 M |
| B2 | 0.393 nM |  | 6.08 nM |  |  |
